± gives the standard deviation of the averaged measurements.
Key:
[1] = system: VchCAST RNA-guided transposition machinery (E. coli BL21(DE3) host, lacZ target); test: relative integration efficiency (T-LR orientation) vs wild-type transposon end (log2 (normalized fold change)); transposon end mutated: left end; higher = more efficient transposition
In short: (§1)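 Barcoded pools of 1549 left-end or 1849 right-end transposon variants were cloned into a pUC57 mini-transposon donor. Each pool was co-transformed with a T7-driven effector plasmid (CRISPR array, tniQ-cas8-cas7-cas6, tnsA-tnsB-tnsC) into E. coli BL21(DE3) and plated with 0.1 mM IPTG at 37°C for 18 h. Input plasmids and genomic integration junctions were PCR-amplified and Illumina-sequenced, with two biological output replicates and four wild-type barcodes as reference. Relative integration efficiency is output/input barcode abundance fold change, normalised to wild-type barcodes and log-transformed.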

[2] = system: VchCAST RNA-guided transposition machinery (E. coli BL21(DE3) host, lacZ target); test: relative integration efficiency (T-RL orientation) vs wild-type transposon end (log2 (normalized fold change)); transposon end mutated: left end; higher = more efficient transposition
In short: as §1

Sequence	relative integration efficiency (log2) [1]	relative integration efficiency (log2) [2]
AATGTTGTTGATGCAACCATAAGTTGATATTTTATAATTATTTATAATCAGCAACTTAACCACAAAACACCCATAAATTGATATTGCACAAAAGTTGGTATTCAACTATAAAATGTGAATCGAGTATTTCAGCAAAACTACTGCAGTAAGAA	-1.01 ± 1.3	-3.48 ± 1.3
AATGTTGTTGATGCAACCATACCTGTCGCGGGCCGCCGGCGGGCGCCGACTACCAGGCCAACACCCCACCAACGCGCGGTCGCGAGACACCCCACCAACGCCTGGTCGCGGGGGTGTCCGATCTGATTTCAGCAAAACTACTGCAGTAAGAA	< -10	< -10
AATGTTGTTGATGCAACCATATATTGATATCTCATAATTATTTATAATCAGCAACTTAACCACAAAACAACCATAAAATGATAATTAACAAAAGTTGGTATTCAACTATAAAATGTGAATCGAGTATTTCAGCAAAACTACTGCAGTAAGAA	-1.34 ± 1	-3.2 ± 1.5
AATGTTGTTGATGCAACCATATATTGATATCTCATAATTATTTATAATCAGCAACTTAACCACAAAACAACCATAAAGTGATATTTAACAAAAGTTGGTATTCAACTATAAAATGTGAATCGAGTATTTCAGCAAAACTACTGCAGTAAGAA	-1.75 ± 1.5	-3.25 ± 1.2
AATGTTGTTGATGCAACCATATATTGATATCTCATAATTATTTATAATCAGCAACTTAACCACAAAACAACCATAAGTTGATATTTTACAAAAGTTGGTATTCAACTATAAAATGTGAATCGAGTATTTCAGCAAAACTACTGCAGTAAGAA	-1.84 ± 0.76	-3.58 ± 1.4
AATGTTGTTGATGCAACCATATATTGATATCTCATAATTATTTATAATCAGCAACTTAACCACAAAACAACCATATATTGATATCTCACAAAAGTTGGTATTCAACTATAAAATGTGAATCGAGTATTTCAGCAAAACTACTGCAGTAAGAA	-2.34 ± 0.9	-3.5 ± 1.4
AATGTTGTTGATGCAACCATATATTGATATCTCATAATTATTTATAATCAGCAACTTAACCACAAAACACCCATAAATTGATAATTAACAAAAGTTGGTATTCAACTATAAAATGTGAATCGAGTATTTCAGCAAAACTACTGCAGTAAGAA	-1.08 ± 1.5	-3.56 ± 1.4
AATGTTGTTGATGCAACCATATATTGATATCTCATAATTATTTATAATCAGCAACTTAACCACAAAACACCCATAAATTGATATTGCACAAAAGTTGGTATTCAACTATAAAATGTGAATCGAGTATTTCAGCAAAACTACTGCAGTAAGAA	-2.2 ± 1.6	-4.07 ± 1.2
AATGTTGTTGATGCAACCATATTCACATATTTAATAATTATTTATAATCAGCAACTTAACCACAAAACAACCATAATAACATATCTCACAAAACAACCATATCAACATATTTTTGTGAATCGAGTATTTCAGCAAAACTACTGCAGTAAGAA	< -10	-7.41 ± 0.33
AATGTTGTTGATGCAACCATCCCTGTCGCGGGCCGCCGGCGGGCGCCGACTACCAGGCCAACACCCCACCAACGCGCGGTCGCGAGACACCCCACCAACGCCTGGTCGCGGGGGTGTCCGATCTGATTTCAGCAAAACTACTGCAGTAAGAA	-9.26 ± 0.31	< -10
AATGTTGTTGATGCACCCATAAATTGATAATTAATAATTATTTATAATCAGCAACTTAACCACAAAACAACCATAAAATGATAATTAACAAAAGTTGGTATTCAACTATAAAATGTGAATCGAGTATTTCAGCAAAACTACTGCAGTAAGAA	-0.947 ± 1.4	-2.86 ± 1.1
AATGTTGTTGATGCACCCATAAATTGATAATTAATAATTATTTATAATCAGCAACTTAACCACAAAACAACCATAAAGTGATATTTAACAAAAGTTGGTATTCAACTATAAAATGTGAATCGAGTATTTCAGCAAAACTACTGCAGTAAGAA	-1.55 ± 1.7	-2.92 ± 1.1
AATGTTGTTGATGCACCCATAAATTGATAATTAATAATTATTTATAATCAGCAACTTAACCACAAAACAACCATAAGTTGATATTTTACAAAAGTTGGTATTCAACTATAAAATGTGAATCGAGTATTTCAGCAAAACTACTGCAGTAAGAA	-1.17 ± 0.98	-3.01 ± 1.1
AATGTTGTTGATGCACCCATAAATTGATAATTAATAATTATTTATAATCAGCAACTTAACCACAAAACAACCATATATTGATATCTCACAAAAGTTGGTATTCAACTATAAAATGTGAATCGAGTATTTCAGCAAAACTACTGCAGTAAGAA	-1.82 ± 1.9	-2.76 ± 1.1
AATGTTGTTGATGCACCCATAAATTGATAATTAATAATTATTTATAATCAGCAACTTAACCACAAAACACCCATAAATTGATAATTAACAAAAGTTGGTATTCAACTATAAAATGTGAATCGAGTATTTCAGCAAAACTACTGCAGTAAGAA	-1.11 ± 1.5	-2.87 ± 0.73
AATGTTGTTGATGCACCCATAAATTGATAATTAATAATTATTTATAATCAGCAACTTAACCACAAAACACCCATAAATTGATATTGCACAAAAGTTGGTATTCAACTATAAAATGTGAATCGAGTATTTCAGCAAAACTACTGCAGTAAGAA	-1.72 ± 0.67	-3.68 ± 1.4

Sequence	relative integration efficiency (log2) [1]	relative integration efficiency (log2) [2]
AATGTTGTTGATGCACCCATAAATTGATATTGCATAATTATTTATAATCAGCAACTTAACCACAAAACAACCATAAAATGATAATTAACAAAAGTTGGTATTCAACTATAAAATGTGAATCGAGTATTTCAGCAAAACTACTGCAGTAAGAA	-1.26 ± 0.57	-3.11 ± 1.5
AATGTTGTTGATGCACCCATAAATTGATATTGCATAATTATTTATAATCAGCAACTTAACCACAAAACAACCATAAAGTGATATTTAACAAAAGTTGGTATTCAACTATAAAATGTGAATCGAGTATTTCAGCAAAACTACTGCAGTAAGAA	-1.73 ± 0.93	-3.26 ± 1
AATGTTGTTGATGCACCCATAAATTGATATTGCATAATTATTTATAATCAGCAACTTAACCACAAAACAACCATAAGTTGATATTTTACAAAAGTTGGTATTCAACTATAAAATGTGAATCGAGTATTTCAGCAAAACTACTGCAGTAAGAA	-1.34 ± 1.4	-3.46 ± 1.6
AATGTTGTTGATGCACCCATAAATTGATATTGCATAATTATTTATAATCAGCAACTTAACCACAAAACAACCATATATTGATATCTCACAAAAGTTGGTATTCAACTATAAAATGTGAATCGAGTATTTCAGCAAAACTACTGCAGTAAGAA	-1.64 ± 1.3	-3.48 ± 0.92
AATGTTGTTGATGCACCCATAAATTGATATTGCATAATTATTTATAATCAGCAACTTAACCACAAAACACCCATAAATTGATAATTAACAAAAGTTGGTATTCAACTATAAAATGTGAATCGAGTATTTCAGCAAAACTACTGCAGTAAGAA	-1.55 ± 1.2	-3.57 ± 1.4
AATGTTGTTGATGCACCCATAAATTGATATTGCATAATTATTTATAATCAGCAACTTAACCACAAAACACCCATAAATTGATATTGCACAAAAGTTGGTATTCAACTATAAAATGTGAATCGAGTATTTCAGCAAAACTACTGCAGTAAGAA	-2.41 ± 2	-4.32 ± 0.9
AATGTTGTTGATGGTTGGTATTTCACTATAAATATAATTATTTATAATCAGCAACTTAACCACAAAAGTTGGTATATAACTATAGAGACAAAAGTTGGTATTCAACTATAAAATGTGAATCGAGTATTTCAGCAAAACTACTGCAGTAAGAA	< -10	-8.52 ± 0.29
AATGTTGTTGATGTAATTATCATTTTATGGTTGATAATTATTTATAATCAGCAACTTAACCACAAAACAACCATAAAATGATAATTAACAAAATAATTATCATTTTATGGTTGTGTGAATCGAGTATTTCAGCAAAACTACTGCAGTAAGAA	< -10	-7.72 ± 0.59
AATGTTGTTGATGTAATTATCATTTTATGGTTGATAATTATTTATAATCAGCAACTTAACCACAAAACAACCATAAAATGATAATTATTTTGTCAACCATAAAATGATAATTATGTGAATCGAGTATTTCAGCAAAACTACTGCAGTAAGAA	< -10	-8.78 ± 0.35
AATGTTGTTGATGTAATTATCATTTTATGGTTGATAATTATTTATAATCAGCAACTTAACCACAAAATAATTATCATTTTATGGTTGACAAAATAATTATCATTTTATGGTTGTGTGAATCGAGTATTTCAGCAAAACTACTGCAGTAAGAA	< -10	< -10
AATGTTGTTGATGTCAACCATAAAGTGATATTTAATAATTATTTATAATCAGCAACTTAACCACAAAACAACCATATATTGATATCTCACAAAACAACCATAAGTTGATATTTTTGTGAATCGAGTATTTCAGCAAAACTACTGCAGTAAGA	-0.718 ± 0.039	-0.694 ± 0.2
AATGTTGTTGATGTGCAACCATAAAGTGATATTTAATAATTATTTATAATCAGCAACTTAACCACAAAACAACCATATATTGATATCTCACAAAACAACCATAAGTTGATATTTTTGTGAATCGAGTATTTCAGCAAAACTACTGCAGTAAG	< -10	-6.45 ± 0.8
AATGTTGTTGATGTGTCAACCATAAAGTGATATTTAATAATTATTTATAATCAGCAACTTAACCACAAAACAACCATATATTGATATCTCACAAAACAACCATAAGTTGATATTTTTGTGAATCGAGTATTTCAGCAAAACTACTGCAGTAA	-2.19 ± 1.3	-1.14 ± 0.25
AATGTTGTTGATGTGTTCAACCATAAAGTGATATTTAATAATTATTTATAATCAGCAACTTAACCACAAAACAACCATATATTGATATCTCACAAAACAACCATAAGTTGATATTTTTGTGAATCGAGTATTTCAGCAAAACTACTGCAGTA	< -10	-6.33 ± 0.89
AATGTTGTTGATGTGTTGATGCAACCATAAAGTGATATTTAATAATTATTTATAATCAGCAACTTAACCACAAAACAACCATATATTGATATCTCACAAAACAACCATAAGTTGATATTTTTGTGAATCGAGTATTTCAGCAAAACTACTGC	-0.829 ± 0.034	-0.31 ± 0.015

Source: the supplement of paper PMC10201428
